Assay results from article PMC12416549 (2024).

T1: TNFR1 (Homo sapiens, UniProt P19438)
T1 chain: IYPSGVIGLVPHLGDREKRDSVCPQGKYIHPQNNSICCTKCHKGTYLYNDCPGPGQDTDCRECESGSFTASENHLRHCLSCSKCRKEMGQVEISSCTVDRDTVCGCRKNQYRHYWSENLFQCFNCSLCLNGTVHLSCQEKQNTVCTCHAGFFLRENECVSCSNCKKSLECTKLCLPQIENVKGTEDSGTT


Target: T1, TNFR1
Assay: yeast display SC50

Row | apparent Kd (screen) | Binder
1 | 0.49 nM | R8F (designed binder) MTLQELLFEEALRRAEAEAFRYALELLAEKFPEQKEYLLDLAEEIESQIRSLSGVDVEDVRKFLDKEWAWVKELLAEHPAELAEVEAARAARLAELRAEVEAKVAA
2 | 0.446 nM | E95L (designed binder) MTLQELLREEALRRAEAEAFRYALELLAEKFPEQKEYLLDLAEEIESQIRSLSGVDVEDVRKFLDKEWAWVKELLAEHPAELAEVEAARAARLALLRAEVEAKVAA
3 | 2.05 nM | L39A (designed binder) MTLQELLREEALRRAEAEAFRYALELLAEKFPEQKEYLADLAEEIESQIRSLSGVDVEDVRKFLDKEWAWVKELLAEHPAELAEVEAARAARLAELRAEVEAKVAA
4 | 0.539 nM | R8K (designed binder) MTLQELLKEEALRRAEAEAFRYALELLAEKFPEQKEYLLDLAEEIESQIRSLSGVDVEDVRKFLDKEWAWVKELLAEHPAELAEVEAARAARLAELRAEVEAKVAA
5 | 1.05 nM | R89G (designed binder) MTLQELLREEALRRAEAEAFRYALELLAEKFPEQKEYLLDLAEEIESQIRSLSGVDVEDVRKFLDKEWAWVKELLAEHPAELAEVEAAGAARLAELRAEVEAKVAA
6 | 0.49 nM | A80Q (designed binder) MTLQELLREEALRRAEAEAFRYALELLAEKFPEQKEYLLDLAEEIESQIRSLSGVDVEDVRKFLDKEWAWVKELLAEHPQELAEVEAARAARLAELRAEVEAKVAA
7 | 0.718 nM | A90R (designed binder) MTLQELLREEALRRAEAEAFRYALELLAEKFPEQKEYLLDLAEEIESQIRSLSGVDVEDVRKFLDKEWAWVKELLAEHPAELAEVEAARRARLAELRAEVEAKVAA
8 | 0.49 nM | K72S (designed binder) MTLQELLREEALRRAEAEAFRYALELLAEKFPEQKEYLLDLAEEIESQIRSLSGVDVEDVRKFLDKEWAWVSELLAEHPAELAEVEAARAARLAELRAEVEAKVAA
9 | 0.446 nM | R50E (designed binder) MTLQELLREEALRRAEAEAFRYALELLAEKFPEQKEYLLDLAEEIESQIESLSGVDVEDVRKFLDKEWAWVKELLAEHPAELAEVEAARAARLAELRAEVEAKVAA
10 | 0.539 nM | K30Y (designed binder) MTLQELLREEALRRAEAEAFRYALELLAEYFPEQKEYLLDLAEEIESQIRSLSGVDVEDVRKFLDKEWAWVKELLAEHPAELAEVEAARAARLAELRAEVEAKVAA
11 | 0.869 nM | E86Q (designed binder) MTLQELLREEALRRAEAEAFRYALELLAEKFPEQKEYLLDLAEEIESQIRSLSGVDVEDVRKFLDKEWAWVKELLAEHPAELAEVQAARAARLAELRAEVEAKVAA
12 | 0.956 nM | L96R (designed binder) MTLQELLREEALRRAEAEAFRYALELLAEKFPEQKEYLLDLAEEIESQIRSLSGVDVEDVRKFLDKEWAWVKELLAEHPAELAEVEAARAARLAERRAEVEAKVAA
13 | 16.7 nM | L7G (designed binder) MTLQELGREEALRRAEAEAFRYALELLAEKFPEQKEYLLDLAEEIESQIRSLSGVDVEDVRKFLDKEWAWVKELLAEHPAELAEVEAARAARLAELRAEVEAKVAA
14 | 0.539 nM | D59M (designed binder) MTLQELLREEALRRAEAEAFRYALELLAEKFPEQKEYLLDLAEEIESQIRSLSGVDVEMVRKFLDKEWAWVKELLAEHPAELAEVEAARAARLAELRAEVEAKVAA
15 | 0.539 nM | R50Y (designed binder) MTLQELLREEALRRAEAEAFRYALELLAEKFPEQKEYLLDLAEEIESQIYSLSGVDVEDVRKFLDKEWAWVKELLAEHPAELAEVEAARAARLAELRAEVEAKVAA
16 | 0.49 nM | R13L (designed binder) MTLQELLREEALLRAEAEAFRYALELLAEKFPEQKEYLLDLAEEIESQIRSLSGVDVEDVRKFLDKEWAWVKELLAEHPAELAEVEAARAARLAELRAEVEAKVAA
17 | 1.86 nM | D56H (designed binder) MTLQELLREEALRRAEAEAFRYALELLAEKFPEQKEYLLDLAEEIESQIRSLSGVHVEDVRKFLDKEWAWVKELLAEHPAELAEVEAARAARLAELRAEVEAKVAA
18 | 1.05 nM | A42C (designed binder) MTLQELLREEALRRAEAEAFRYALELLAEKFPEQKEYLLDLCEEIESQIRSLSGVDVEDVRKFLDKEWAWVKELLAEHPAELAEVEAARAARLAELRAEVEAKVAA

Row | apparent Kd (screen) | Binder
19 | 0.304 nM | E46C (designed binder) MTLQELLREEALRRAEAEAFRYALELLAEKFPEQKEYLLDLAEEICSQIRSLSGVDVEDVRKFLDKEWAWVKELLAEHPAELAEVEAARAARLAELRAEVEAKVAA
20 | 0.49 nM | E46F (designed binder) MTLQELLREEALRRAEAEAFRYALELLAEKFPEQKEYLLDLAEEIFSQIRSLSGVDVEDVRKFLDKEWAWVKELLAEHPAELAEVEAARAARLAELRAEVEAKVAA
21 | 0.593 nM | R50M (designed binder) MTLQELLREEALRRAEAEAFRYALELLAEKFPEQKEYLLDLAEEIESQIMSLSGVDVEDVRKFLDKEWAWVKELLAEHPAELAEVEAARAARLAELRAEVEAKVAA
22 | 0.539 nM | V57L (designed binder) MTLQELLREEALRRAEAEAFRYALELLAEKFPEQKEYLLDLAEEIESQIRSLSGVDLEDVRKFLDKEWAWVKELLAEHPAELAEVEAARAARLAELRAEVEAKVAA
23 | 0.539 nM | A23T (designed binder) MTLQELLREEALRRAEAEAFRYTLELLAEKFPEQKEYLLDLAEEIESQIRSLSGVDVEDVRKFLDKEWAWVKELLAEHPAELAEVEAARAARLAELRAEVEAKVAA
24 | 0.539 nM | R97N (designed binder) MTLQELLREEALRRAEAEAFRYALELLAEKFPEQKEYLLDLAEEIESQIRSLSGVDVEDVRKFLDKEWAWVKELLAEHPAELAEVEAARAARLAELNAEVEAKVAA
25 | 0.49 nM | A88E (designed binder) MTLQELLREEALRRAEAEAFRYALELLAEKFPEQKEYLLDLAEEIESQIRSLSGVDVEDVRKFLDKEWAWVKELLAEHPAELAEVEAERAARLAELRAEVEAKVAA
26 | 0.718 nM | L75Y (designed binder) MTLQELLREEALRRAEAEAFRYALELLAEKFPEQKEYLLDLAEEIESQIRSLSGVDVEDVRKFLDKEWAWVKELYAEHPAELAEVEAARAARLAELRAEVEAKVAA
27 | 0.49 nM | L96P (designed binder) MTLQELLREEALRRAEAEAFRYALELLAEKFPEQKEYLLDLAEEIESQIRSLSGVDVEDVRKFLDKEWAWVKELLAEHPAELAEVEAARAARLAEPRAEVEAKVAA
28 | 0.956 nM | A87T (designed binder) MTLQELLREEALRRAEAEAFRYALELLAEKFPEQKEYLLDLAEEIESQIRSLSGVDVEDVRKFLDKEWAWVKELLAEHPAELAEVETARAARLAELRAEVEAKVAA
29 | 0.79 nM | L38Y (designed binder) MTLQELLREEALRRAEAEAFRYALELLAEKFPEQKEYYLDLAEEIESQIRSLSGVDVEDVRKFLDKEWAWVKELLAEHPAELAEVEAARAARLAELRAEVEAKVAA
30 | 0.539 nM | A15Y (designed binder) MTLQELLREEALRRYEAEAFRYALELLAEKFPEQKEYLLDLAEEIESQIRSLSGVDVEDVRKFLDKEWAWVKELLAEHPAELAEVEAARAARLAELRAEVEAKVAA
31 | 0.405 nM | Q4N (designed binder) MTLNELLREEALRRAEAEAFRYALELLAEKFPEQKEYLLDLAEEIESQIRSLSGVDVEDVRKFLDKEWAWVKELLAEHPAELAEVEAARAARLAELRAEVEAKVAA
32 | 0.593 nM | K35W (designed binder) MTLQELLREEALRRAEAEAFRYALELLAEKFPEQWEYLLDLAEEIESQIRSLSGVDVEDVRKFLDKEWAWVKELLAEHPAELAEVEAARAARLAELRAEVEAKVAA
33 | 0.869 nM | F63T (designed binder) MTLQELLREEALRRAEAEAFRYALELLAEKFPEQKEYLLDLAEEIESQIRSLSGVDVEDVRKTLDKEWAWVKELLAEHPAELAEVEAARAARLAELRAEVEAKVAA
34 | 0.718 nM | D59L (designed binder) MTLQELLREEALRRAEAEAFRYALELLAEKFPEQKEYLLDLAEEIESQIRSLSGVDVELVRKFLDKEWAWVKELLAEHPAELAEVEAARAARLAELRAEVEAKVAA
35 | 2.05 nM | E44H (designed binder) MTLQELLREEALRRAEAEAFRYALELLAEKFPEQKEYLLDLAEHIESQIRSLSGVDVEDVRKFLDKEWAWVKELLAEHPAELAEVEAARAARLAELRAEVEAKVAA
